Data taken from patent US20250205280A1 (Janssen / Centocor, published 2025).

T1: IL1RAP on H1975 cells (human, UniProt Q9NPH3 21-570)
T1 construct: whole, on cells; also called ILIRAP; H1975 tumor cell line expressing ILIRAP
T1 sequence (looked up): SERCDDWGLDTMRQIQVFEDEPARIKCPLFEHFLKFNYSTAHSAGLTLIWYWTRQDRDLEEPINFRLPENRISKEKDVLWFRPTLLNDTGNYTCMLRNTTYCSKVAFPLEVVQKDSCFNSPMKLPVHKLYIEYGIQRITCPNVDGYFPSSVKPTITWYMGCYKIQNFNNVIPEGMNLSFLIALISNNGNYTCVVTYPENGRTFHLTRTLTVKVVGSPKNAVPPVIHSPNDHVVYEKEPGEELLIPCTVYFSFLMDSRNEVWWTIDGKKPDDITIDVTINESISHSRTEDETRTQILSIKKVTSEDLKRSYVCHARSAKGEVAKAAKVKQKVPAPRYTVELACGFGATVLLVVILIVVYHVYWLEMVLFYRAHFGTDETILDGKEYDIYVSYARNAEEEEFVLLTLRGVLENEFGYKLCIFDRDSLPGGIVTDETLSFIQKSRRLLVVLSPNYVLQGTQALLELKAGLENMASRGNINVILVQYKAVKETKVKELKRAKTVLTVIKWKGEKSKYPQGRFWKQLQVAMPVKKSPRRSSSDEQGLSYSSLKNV


Assays:
IL1RAP on H1975 cells [1] = target: T1, IL1RAP on H1975 cells; test: flow cytometry on H1975 cells, % binding; top right panel
PSMA on 22Rv1 cells = target: T2, PSMA on 22Rv1 cells (human, UniProt Q04609 1-750); test: flow cytometry on 22Rv1 cells, % binding; top middle panel
T2 construct: whole, on cells; also called 22Rv1 tumor cell line expressing PSMA

CD123 on Kasumi-3 cells = target: T3, CD123 on Kasumi-3 cells (UniProt P26951 19-378, limits assumed); test: flow cytometry on Kasumi-3 cells, % binding; top left panel
T3 construct: whole, on cells; also called tumor associated antigen (TAA) on Kasumi-3

[2] = target: T4, Vβ17 (TRBV19) T cell receptor on Vβ17+CD8+ T cells (human); test: flow cytometry on total (Vβ17 non-depleted) CD8+ T cells from PBMCs, % binding
T4 construct: whole, on cells; also called Vβ17+ T cells
Method: (§1) Binding of Vβ17 bispecific antibodies to its respective tumor associated antigen (TAA) expressing cell line and CD8+ T cells was carried out by flow cytometry. Briefly, 50,000 target cells or CD8+ T cells were incubated at 4° C. for 45 minutes with serial dilutions of various bispecific antibodies or its null arm control bispecific antibodies. After washing with wash buffer (PBS+2% FBS), bispecific antibody bound to cell surface was detected by incubating the cells with PE labelled mouse anti human IgG4 secondary antibody (SouthernBiotech, Birmingham, AL) for 30 minutes at 4° C. Cells were washed with wash buffer (PBS+2% FBS) and the fluorescence of stained cells was measured on Novocyte flow cytometer. Cells were visualized on forward and sideward scatter and doublets were excluded. No secondary antibody control was used to establish background fluorescence and to gate on specific population. Background value was subtracted from main samples to get specific binding value. […] For all binding assays, tumor associated antigen (TAA) expression on cell lines and the abundance of Vβ17+ cells among Pan-T cells or CD8+ T cells were assessed by staining them with specific monoclonal antibody.

[3] = target: T4, Vβ17 (TRBV19) T cell receptor on …; test: flow cytometry on M1 peptide expanded CD8+ T cells, PE anti-human IgG4 secondary, % binding; bottom left panel, second EC50 line, square curve (right of the circles)
Method: as §1
(§2) Mouse anti-human IgG4 Fc-PE secondary antibody was used to detect the bispecific antibody using FACS method.

[4] = target: T4, Vβ17 (TRBV19) T cell receptor on …; test: flow cytometry on M1 peptide expanded CD8+ T cells, PE anti-human IgG4 secondary, % binding; bottom right panel, second EC50 line, square curve (right of the circles)
Method: as §1, §2

[5] = target: T4, Vβ17 (TRBV19) T cell receptor on …; test: flow cytometry on M1 peptide expanded CD8+ T cells, PE anti-human IgG4 secondary, % binding; bottom middle panel, second EC50 line, square curve (right of the circles)
Method: as §1, §2

IL1RAP on H1975 cells [6] = target: T1, IL1RAP on H1975 cells; test: flow cytometry on H1975 cells expressing IL1RAP, detected with anti-human IgG4 Fc-PE
Method: as §1

[7] = target: T4, Vβ17 (TRBV19) T cell receptor on …; test: flow cytometry on enriched M1 peptide-stimulated CD8+ T cells (day 14), frequency of positive cells, anti-human IgG4 Fc-PE
Method: as §1, §2

[8] = target: T4, Vβ17 (TRBV19) T cell receptor on …; test: flow cytometry on M1 peptide expanded CD8+ T cells, PE anti-human IgG4 secondary, % binding; bottom right panel, first EC50 line, circle curve (left of the squares)
Method: as §1, §2

T4 sequence (A0A075B6N1 22-114): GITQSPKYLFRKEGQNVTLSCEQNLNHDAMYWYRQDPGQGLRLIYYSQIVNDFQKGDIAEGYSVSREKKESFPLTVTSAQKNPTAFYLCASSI
T2 sequence (Q04609 whole entry): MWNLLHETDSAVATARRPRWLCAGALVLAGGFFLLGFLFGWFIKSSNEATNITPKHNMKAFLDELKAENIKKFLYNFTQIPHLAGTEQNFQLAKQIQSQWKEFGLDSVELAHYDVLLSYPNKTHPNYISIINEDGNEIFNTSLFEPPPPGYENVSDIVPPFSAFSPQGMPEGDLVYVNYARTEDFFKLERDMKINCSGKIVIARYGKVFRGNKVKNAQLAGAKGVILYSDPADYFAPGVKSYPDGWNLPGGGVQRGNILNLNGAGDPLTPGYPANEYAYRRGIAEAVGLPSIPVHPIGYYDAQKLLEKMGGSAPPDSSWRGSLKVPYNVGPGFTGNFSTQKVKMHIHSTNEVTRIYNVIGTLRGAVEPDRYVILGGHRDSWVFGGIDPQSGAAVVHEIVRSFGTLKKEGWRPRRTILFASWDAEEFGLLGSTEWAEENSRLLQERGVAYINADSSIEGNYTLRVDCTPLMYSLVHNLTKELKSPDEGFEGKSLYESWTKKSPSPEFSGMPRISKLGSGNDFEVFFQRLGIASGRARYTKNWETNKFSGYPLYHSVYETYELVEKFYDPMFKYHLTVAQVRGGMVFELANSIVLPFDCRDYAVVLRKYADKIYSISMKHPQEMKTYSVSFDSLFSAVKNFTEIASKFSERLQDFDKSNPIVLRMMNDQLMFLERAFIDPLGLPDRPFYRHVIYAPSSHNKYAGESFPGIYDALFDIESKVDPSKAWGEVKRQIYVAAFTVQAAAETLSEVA
T3 sequence (P26951 19-378 limits assumed): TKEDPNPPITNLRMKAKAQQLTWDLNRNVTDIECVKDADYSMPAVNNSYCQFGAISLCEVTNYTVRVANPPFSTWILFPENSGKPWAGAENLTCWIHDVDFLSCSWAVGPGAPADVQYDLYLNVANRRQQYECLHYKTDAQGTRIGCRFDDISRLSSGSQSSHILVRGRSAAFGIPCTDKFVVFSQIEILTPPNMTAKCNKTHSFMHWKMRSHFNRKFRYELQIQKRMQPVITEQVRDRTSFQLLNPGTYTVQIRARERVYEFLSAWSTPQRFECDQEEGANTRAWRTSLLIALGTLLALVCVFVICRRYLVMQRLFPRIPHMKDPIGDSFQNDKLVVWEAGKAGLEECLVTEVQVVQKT

| Binder | binding result (IL1RAP on H1975 cells [1]) | binding result (PSMA on 22Rv1 cells) | binding result (CD123 on Kasumi-3 cells) | EC50 (read off the curve) [2] [µg/mL] | EC50 [3] [nM] | EC50 [4] [nM] | EC50 [5] [nM] | EC50 (IL1RAP on H1975 cells [6]) [nM] | EC50 [7] [nM] | EC50 [8] [nM] |
| --- | --- | --- | --- | --- | --- | --- | --- | --- | --- | --- |
| Vβ17/Null (bispecific antibody, human IgG4 S228P, kappa, F234A L235A, also called Vβ17/NULL arm control bispecific antibody; Vβ17XNULL) Vβ17 half antibody (B17B21; light chain, linker and heavy chain in one polypeptide): DIQMTQSPSSLSASVGDRVTITCRSSQSLVHSNGNTYLHWYQQKPGKAPKFLIYKVSNRFSGVPSRFSGSGSGTDFTLTISSLQPEDFATYYCSQSTHVPFTFGQGTKLEIKRTVAAPSVFIFPPSDEQLKSGTASVVCLLNNFYPREAKVQWKVDNALQSGNSQESVTEQDSKDSTYSLSSTLTLSKADYEKHKVYACEVTHQGLSSPVTKSFNRGECGGSEGKSSGSGSESKSTEGKSSGSGSESKSTGGSQVQLQESGPGLVKPSETLSLTCTVSGYSITSGYFWNWIRQPPGKGLEWIGYISYDGSNNYNPSLKSRVTISRDTSKNQFSLKLSSVTAADTAVYYCASPSPGTGYAVDYWGQGTLVTVSSASTKGPSVFPLAPCSRSTSESTAALGCLVKDYFPEPVTVSWNSGALTSGVHTFPAVLQSSGLYSLSSVVTVPSSSLGTKTYTCNVDHKPSNTKVDKRVESKYGPPCPPCPAPEAAGGPSVFLFPPKPKDTLMISRTPEVTCVVVDVSQEDPEVQFNWYVDGVEVHNAKTKPREEQFNSTYRVVSVLTVLHQDWLNGKEYKCKVSNKGLPSSIEKTISKAKGQPREPQVYTLPPSQEEMTKNQVSLSCAVKGFYPSDIAVEWESNGQPENNYKTTPPVLDSDGSFFLVSRLTVDKSRWQEGNVFSCSVMHEALHNRFTQKSLSLSLGK null half antibody (B23B49; light chain, linker and heavy chain in one polypeptide): not shown | no binding (tested: about 30 µg/mL) | no binding (tested: 10 µg/mL) | no binding (tested: about 5 µg/mL) | ~0.3 | 2.4 | 2.8 | 3.75 | – | – | – |
| Vβ17/IL1RAP bispecific antibody (bispecific antibody, human IgG4 S228P, kappa, lambda, F234A L235A, also called Vβ17XIL1RAP) chain 1: DIQMTQSPSSLSASVGDRVTITCRSSQSLVHSNGNTYLHWYQQKPGKAPKFLIYKVSNRFSGVPSRFSGSGSGTDFTLTISSLQPEDFATYYCSQSTHVPFTFGQGTKLEIKRTVAAPSVFIFPPSDEQLKSGTASVVCLLNNFYPREAKVQWKVDNALQSGNSQESVTEQDSKDSTYSLSSTLTLSKADYEKHKVYACEVTHQGLSSPVTKSFNRGECGGSEGKSSGSGSESKSTEGKSSGSGSESKSTGGSQVQLQESGPGLVKPSETLSLTCTVSGYSITSGYFWNWIRQPPGKGLEWIGYISYDGSNNYNPSLKSRVTISRDTSKNQFSLKLSSVTAADTAVYYCASPSPGTGYAVDYWGQGTLVTVSSASTKGPSVFPLAPCSRSTSESTAALGCLVKDYFPEPVTVSWNSGALTSGVHTFPAVLQSSGLYSLSSVVTVPSSSLGTKTYTCNVDHKPSNTKVDKRVESKYGPPCPPCPAPEAAGGPSVFLFPPKPKDTLMISRTPEVTCVVVDVSQEDPEVQFNWYVDGVEVHNAKTKPREEQFNSTYRVVSVLTVLHQDWLNGKEYKCKVSNKGLPSSIEKTISKAKGQPREPQVYTLPPSQEEMTKNQVSLSCAVKGFYPSDIAVEWESNGQPENNYKTTPPVLDSDGSFFLVSRLTVDKSRWQEGNVFSCSVMHEALHNRFTQKSLSLSLGK chain 2: QSALTQPRSVSGSPGHSVTISCTGTSSDVGDYNYVSWYQQRPGKVPKLLIYDVSKRPSGVPDRFSGSKSGNTASLTISGLQAEDEAIYFCASYAGNYNVVFGGGTKLTVLGQPKAAPSVTLFPPSSEELQANKATLVCLISDFYPGAVTVAWKADSSPVKAGVETTTPSKQSNNKYAASSYLSLTPEQWKSHRSYSCQVTHEGSTVEKTVAPTECSGGSEGKSSGSGSESKSTEGKSSGSGSESKSTGGSQVQLVQSGSELKKPGASVKVSCKASGYTFNTYAMNWVRQAPGQGLEWMGWINTNTGNPTYAQGFTGRFVFSLDTSVSTAYLQISSLKAEDTAVYYCARRYFDWLLGAFDIWGQGTMVTVSSASTKGPSVFPLAPCSRSTSESTAALGCLVKDYFPEPVTVSWNSGALTSGVHTFPAVLQSSGLYSLSSVVTVPSSSLGTKTYTCNVDHKPSNTKVDKRVESKYGPPCPPCPAPEAAGGPSVFLFPPKPKDTLMISRTPEVTCVVVDVSQEDPEVQFNWYVDGVEVHNAKTKPREEQFNSTYRVVSVLTVLHQDWLNGKEYKCKVSNKGLPSSIEKTISKAKGQPREPQVYTLPPSQEEMTKNQVSLWCLVKGFYPSDIAVEWESNGQPENNYKTTPPVLDSDGSFFLYSRLTVDKSRWQEGNVFSCSVMHEALHNHYTQKSLSLSLGK | – | – | – | – | – | – | – | 11.3 | 2.8 | 0.33 |
